Results reported in patent US20190106487A1 (Sanofi, published 2019).
Residue numbers refer to the chain shown, from its start.

T1: human IL-1RAcP on 293T/17-FR cells (human, UniProt Q9NPH3 21-570)
T1 sequence (looked up): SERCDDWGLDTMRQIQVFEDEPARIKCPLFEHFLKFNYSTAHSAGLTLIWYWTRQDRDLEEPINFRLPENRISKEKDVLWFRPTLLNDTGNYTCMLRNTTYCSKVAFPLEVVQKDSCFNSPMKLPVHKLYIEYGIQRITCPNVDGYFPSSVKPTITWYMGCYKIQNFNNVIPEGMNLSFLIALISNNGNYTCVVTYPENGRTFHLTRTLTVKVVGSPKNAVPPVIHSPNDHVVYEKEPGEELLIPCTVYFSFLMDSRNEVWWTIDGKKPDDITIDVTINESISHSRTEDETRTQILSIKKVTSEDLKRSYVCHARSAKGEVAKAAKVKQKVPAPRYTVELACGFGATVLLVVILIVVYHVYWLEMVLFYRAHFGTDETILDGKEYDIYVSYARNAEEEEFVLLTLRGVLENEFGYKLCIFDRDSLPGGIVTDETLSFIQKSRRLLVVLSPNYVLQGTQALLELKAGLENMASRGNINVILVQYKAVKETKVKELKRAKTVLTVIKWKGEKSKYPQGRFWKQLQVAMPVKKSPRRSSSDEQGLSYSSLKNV

T2: rhIL-1RAcP/Fc Chimera (human, UniProt Q9NPH3 21-359)
T2 construct: also called P013_03; P013-03
T2 sequence (looked up): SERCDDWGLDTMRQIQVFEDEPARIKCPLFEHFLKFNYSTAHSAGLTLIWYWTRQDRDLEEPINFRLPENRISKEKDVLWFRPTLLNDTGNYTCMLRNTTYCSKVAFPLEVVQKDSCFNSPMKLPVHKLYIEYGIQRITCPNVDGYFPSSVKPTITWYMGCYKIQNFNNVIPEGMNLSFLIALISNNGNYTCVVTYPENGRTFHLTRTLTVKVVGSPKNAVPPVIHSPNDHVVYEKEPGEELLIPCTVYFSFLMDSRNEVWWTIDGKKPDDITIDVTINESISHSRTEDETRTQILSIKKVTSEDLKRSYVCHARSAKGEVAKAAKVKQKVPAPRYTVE

B1: P013.S.01.B.F02 (antibody, V domains shown)
VH: QEQLVESGGGLVQPEGSLTLTCTASGFSFSSNYWMCWVRQAPGKGLEWIACIYTGGSGVTYYASWAKGRFTLSKTSSTTVTLQVTSLTAADTATYFCARDLVVVTSFNLWGQGTLVTVSS
VL: ALMMTQTPSPVSAAVGGTVTINCQASEDIYSNLAWYQQKPGQPPKLLIYSASTLASGVPSRFSGSGSGTEFTLTISGVQSDDAATYYCLGVCTDISVDDVYNSFGGGTEVVVK
notes: rabbit monoclonal antibody; also called P013.A.00043.D08
B2: P013.S.01.B.D02 (antibody, V domains shown)
VH: LEQSGGGAEGGLVKPGGSLELCCKASGFSLTTNYWICWVRQAPGKGLEWIGCIYANSVGSTYYASWVNGRFTLSRDIDQSTGCLQLNSLTAADTAMYYCARVDPGYSFDAFDPWGPGTLVTVSS
VL: ALVMTQTPSPVSAAVGGTVTINCQASEDIYSNLAWFQQKPGQPPKLLIYRASTLASGVPSRFSGSGSGTEFTLTISALQSDDAATYYCLGVRTYFNTLNNSFGGGTEVVVK
notes: rabbit monoclonal antibody; also called P013.A.00022.E06
B3: P013.S.01.B.D05 (antibody, V domains shown)
VH: EQSGGGAEGGLVKPGGSLELYCKASGFSLSSDAWICWVRQAPGKGLEWIGCIYAGSASNTYYATWVNGRFTLSRDIAQSTGCLQLNSLTAADTAMYYCARDRGYDDYGDITRLDLWGQGTLVTVSS
VL: B2 VL with M4L, A77G, R92Y, F95L, N96S, T97D, N99F, N100F, S101V
notes: rabbit monoclonal antibody; also called P013.A.00085.G03
B4: P013.S.02.B.C05 (antibody, V domains shown)
VH: QSLEESGGRLVTPGTPLTLSCTASGFSLSTYYMSWVRQAPGKGLEWIGYMHVGGFPVYASWAKGRFTISKTSTTVDLKITSPTIEDTATYFCARDFGPPNWTLDLWGQGTLVTVSS
VL: DVVMTQTPASVEAAVGGTVTIKCQASQSISSYCSWYQQKPGQPPKLLIYRASTLESGVPSRFKGSGSGTEFTLTISDLESADAATYYCQSSYYDLLGNGFGGGTEVVVK
notes: rabbit monoclonal antibody; also called P013.A.00085.F10
B5: P013.S.02.B.G04 (antibody, V domains shown)
VH: QSLEESGGRLVTPGTPLTLTCTVSGFSLSRCAMIWVRQAPGKGLEWIGFIGRGGSTWYASWVNGRFTISKTSTTVDLKITSPTTEDTATYFCARDGDYSDYYTFDLWGQGTLVTVSS
VL: DVVMTQTPASVSERVGGTVTIKCQASQSIGSNLAWYQQKPGQPPKLLIYGASNLESGVPSRFSGSGSGTEFTLSISGVQSADAATYYCQCSGYDTTGVFPFGGGSEVVVK
notes: rabbit monoclonal antibody; also called P013.A.00015.A11
B6: P013.S.02.B.B01 (antibody, V domains shown)
VH: QSLEESGGRLVTPGTPLTLTCTVSGFSLSGYAMSWVRQAPGKGLEWIGIIYAGSGGTYYASWVKGRFTISKTSTTVDLKITSLTTEDTATYFCARAVPDDSAGKKLWGQGTLVTVSS
VL: DIVMTQTPASVEAAVGGTITINCQASENIYSSLAWYQQKPGQPPKLLIYDASTLASGVSSRFKGSGSGTQFTLTISGVQSDDAATYYCQSYYCSVSSSCGYGFGGGTEVVVK
notes: rabbit monoclonal antibody; also called P013.A.00088.A11
B7: P013.S.01.B.G02 (antibody, V domains shown)
VH: QSVEESGGRLVTPGTPLTLTCTVSGFSLSSYYMSWVRQAPGKGLEWIGYIYAAGPITYYATWAKGRFTISKTSTTVDLKITSPTTEDTATYFCVRDGSGSGTYGYNGMDLWGPGTLVTVSS
VL: AYDMTQTPASVEAAVGGTVNIKCQASQSISNWLAWYQQKPGQRPKLLIYRASTLASGVSSRFKGSGSGTQFTLTISGVESADAATYYCQQGASTTDVDNVFGGGTEVVVK
notes: rabbit monoclonal antibody; also called P013.A.00085.B11
B8: P013.S.02.B.A01 (antibody, V domains shown)
VH: B7 VH
VL: B7 VL with N20T
notes: rabbit monoclonal antibody; also called P013.A.00087.A07
B9: P013.S.01.B.H03 (antibody, V domains shown)
VH: B7 VH
VL: B7 VL with R43P
notes: rabbit monoclonal antibody; also called P013.A.00045.A02
B10: P013.S.01.B.F03 (antibody, V domains shown)
VH: LEQSGGGAEGGLVKPGGSLELCCKASGFSLGSSYWICWVRQAPGKGLEWIGCIYAGSSGITYYASWVSGRFTLSRDIDQSTGCLQLNSLTAADTAMYYCARDIYASTSGYDLWGQGTLVTVSS
VL: ALVMTQTPSPVSAAVGGTVTINCQASEDIYSNLAWFQQKPGQPPKLLIYQASTLASGVPSRFSGSGSGTEFTLTISGLQSDDAAAYYCLGVCTYIGADNTLYNTFGGGTEVVVK
notes: rabbit monoclonal antibody; also called P013.A.00025.F02

These binders were tested against T1, human IL-1RAcP on 293T/17-FR cells (assay: cell-based or functional assay).
In the case of B1, the “functional reporter gene assay (% inhibition), 0.04 µg/mL mAb” value is reported as 45%, the “functional reporter gene assay (% inhibition), 0.2 µg/mL mAb” value is reported as 59% and the “functional reporter gene assay (% inhibition), 1 µg/mL mAb” value is reported as 80%. For the same binder, the “functional reporter gene assay (% inhibition), 5 µg/mL mAb” value was 93% and the “primary supernatant functional assay (% inh.), NF-kB luciferase reporter” value was 76%.
In the case of B2, the “functional reporter gene assay (% inhibition), 0.04 µg/mL mAb” value is reported as 44%, the “functional reporter gene assay (% inhibition), 0.2 µg/mL mAb” value is reported as 68% and the “functional reporter gene assay (% inhibition), 1 µg/mL mAb” value is reported as 88%. For the same binder, the “functional reporter gene assay (% inhibition), 5 µg/mL mAb” value was 92% and the “primary supernatant functional assay (% inh.), NF-kB luciferase reporter” value was 99%.
B3 was tested, and the “functional reporter gene assay (% inhibition), 0.04 µg/mL mAb” value was 26%, the “functional reporter gene assay (% inhibition), 0.2 µg/mL mAb” value was 66% and the “functional reporter gene assay (% inhibition), 1 µg/mL mAb” value was 77%. The “functional reporter gene assay (% inhibition), 5 µg/mL mAb” value was 62% and the “primary supernatant functional assay (% inh.), NF-kB luciferase reporter” value was 93%.
B4 was tested, and the “functional reporter gene assay (% inhibition), 0.04 µg/mL mAb” value was 7%, the “functional reporter gene assay (% inhibition), 0.2 µg/mL mAb” value was 26% and the “functional reporter gene assay (% inhibition), 1 µg/mL mAb” value was 35%. For the same binder, the “functional reporter gene assay (% inhibition), 5 µg/mL mAb” value was 52% and the “primary supernatant functional assay (% inh.), NF-kB luciferase reporter” value was 66%.
B5 was tested, and the “functional reporter gene assay (% inhibition), 0.04 µg/mL mAb” value was -1%, the “functional reporter gene assay (% inhibition), 0.2 µg/mL mAb” value was 0% and the “functional reporter gene assay (% inhibition), 1 µg/mL mAb” value was 4%. The “functional reporter gene assay (% inhibition), 5 µg/mL mAb” value was -18% and the “primary supernatant functional assay (% inh.), NF-kB luciferase reporter” value was 27%.
For B6, the “functional reporter gene assay (% inhibition), 0.04 µg/mL mAb” value was 24%, the “functional reporter gene assay (% inhibition), 0.2 µg/mL mAb” value was 39% and the “functional reporter gene assay (% inhibition), 1 µg/mL mAb” value was 75%. The “functional reporter gene assay (% inhibition), 5 µg/mL mAb” value was 94% and the “primary supernatant functional assay (% inh.), NF-kB luciferase reporter” value was 95%.
With B7 the “functional reporter gene assay (% inhibition), 0.04 µg/mL mAb” value was 43%, the “functional reporter gene assay (% inhibition), 0.2 µg/mL mAb” value was 52% and the “functional reporter gene assay (% inhibition), 1 µg/mL mAb” value was 41%. For the same binder, the “functional reporter gene assay (% inhibition), 5 µg/mL mAb” value was 72% and the “primary supernatant functional assay (% inh.), NF-kB luciferase reporter” value was 71%.
For B8, the “functional reporter gene assay (% inhibition), 0.04 µg/mL mAb” value was 7%, the “functional reporter gene assay (% inhibition), 0.2 µg/mL mAb” value was 45% and the “functional reporter gene assay (% inhibition), 1 µg/mL mAb” value was 67%. The “functional reporter gene assay (% inhibition), 5 µg/mL mAb” value was 87% and the “primary supernatant functional assay (% inh.), NF-kB luciferase reporter” value was 67%.
With B9 the “functional reporter gene assay (% inhibition), 0.04 µg/mL mAb” value was 28%, the “functional reporter gene assay (% inhibition), 0.2 µg/mL mAb” value was 49% and the “functional reporter gene assay (% inhibition), 1 µg/mL mAb” value was 59%. For the same binder, the “functional reporter gene assay (% inhibition), 5 µg/mL mAb” value was 60% and the “primary supernatant functional assay (% inh.), NF-kB luciferase reporter” value was 43%.
B10 was tested, and the “functional reporter gene assay (% inhibition), 0.04 µg/mL mAb” value was 26%, the “functional reporter gene assay (% inhibition), 0.2 µg/mL mAb” value was 59% and the “functional reporter gene assay (% inhibition), 1 µg/mL mAb” value was 87%. The “functional reporter gene assay (% inhibition), 5 µg/mL mAb” value was 94% and the “primary supernatant functional assay (% inh.), NF-kB luciferase reporter” value was 102%.

What follows are binders tested against T2, rhIL-1RAcP/Fc Chimera (assay: ELISA, recombinant purified mAb).
B7 was tested, and the EC50 was 0.049 µg/mL.
For B8, the EC50 was 0.073 µg/mL.
Work on B9 yielded an EC50 of 0.104 µg/mL.
In the case of B10, the EC50 is reported as 0.44 µg/mL.

These binders were tested against T2, rhIL-1RAcP/Fc Chimera (assay: ELISA, primary supernatant, coated hu-IL-1RAcP-Fc).
Description: Microtiter plates were coated IL-1RACP and/or IL12Rβ1 protein (recombinant Fc chimeric conjugates of human IL-1RACP or IL12Rβ1). After a blocking process, specific antibodies from B-cell supernatants bind to the targets and are then detected by a POD-labeled anti-rabbit IgG antibody. The IL12Rβ1 binding was used as a counterscreen. IL-1RACP protein was tagged with a linker, huFc and His like the IL12Rβ1 protein. Antibodies which bind to the tag were positive in both assays, whereas antigen specific antibodies just bound to IL-1RACP and not to IL12Rβ1.
12.5 μL 0.5 μg/mL IL-1RACP protein in PBS was transferred to a microtiter plate, incubated and washed 3× with Wash Buffer. 90 μL Block Buffer was added to each well, incubated and washed. 12.5 μl Standard Antibody (rabbit mAb against IL-1RAcP, anti IL12Rbeta1 antibody: IL-12Rbeta1 antibody; GeneTex; Cat. No. GTX103917) or sample diluted in ELISA buffer was added, incubated and washed. 12.5 μl 1:5000 POD-Antibody (Anti-rabbit IgG, peroxidase-linked species-specific Fab2 fragment (from donkey) (ECL); assay dilution: 1:5000) in Elisa Buffer was added, incubated and washed. 15 μl TMB was added and 15 μl HCl was added after sufficient development. Absorbance (Optical Density O.D.) was read at 450 nm/620 nm.
B1 was tested, and the “hu-IL1RaP ELISA (OD)” value was 3.4 OD.
For B2, the “hu-IL1RaP ELISA (OD)” value was 4 OD.
With B3 the “hu-IL1RaP ELISA (OD)” value was 3.4 OD.
For B4, the “hu-IL1RaP ELISA (OD)” value was 3.2 OD.
For B5, the “hu-IL1RaP ELISA (OD)” value was 2.9 OD.
In the case of B6, the “hu-IL1RaP ELISA (OD)” value is reported as 3.6 OD.
For B7, the “hu-IL1RaP ELISA (OD)” value was 3.7 OD.
With B8 the “hu-IL1RaP ELISA (OD)” value was 3.8 OD.
With B9 the “hu-IL1RaP ELISA (OD)” value was 3.5 OD.
With B10 the “hu-IL1RaP ELISA (OD)” value was 3.4 OD.
